Source: paper PMC7682656

Target: His6-tagged NBDY (human)
Experiment: SPR + ITC

- Kd: 1 µM
Substance: purified EDC4 WD40 domain (residues 72-528) (from UniProt Q6P2E9 72-528) (domain or fragment)
